The supplement of paper PMC9112550, “Optimization of the antimicrobial peptide Bac7 by deep mutational scanning” (BMC Biology, 2022)

Tested on: Escherichia coli TOP10
Experiment: shrunken log2 fold change of peptide-encoding DNA abundance (4.5 h post-induction vs induction); higher = less antimicrobial activity (less host growth inhibition)
Conditions: time post-induction: 4.5 h; library: site-saturation at positions 5, 18, 19, 20
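Note: peptides expressed intracellularly from a pBAD plasmid library in pooled LB shake-flask culture, induced with 0.3% L-arabinose, DNA abundance read by NGS, three biological replicates, DESeq2 with apeglm shrinkage.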

RRIRRRPPRLPRPRPRPYYVPRP
shrunken log2 fold change: -0.427

RRIRLRPPRLPRPRPRPEGHPRP
shrunken log2 fold change: -0.107

RRIRHRPPRLPRPRPRPPKRPRP
shrunken log2 fold change: -0.142

RRIRQRPPRLPRPRPRPYCCPRP
shrunken log2 fold change: -0.781

RRIRGRPPRLPRPRPRPVEFPRP
shrunken log2 fold change: 0.596

RRIRLRPPRLPRPRPRPLVSPRP
shrunken log2 fold change: 0.0156

RRIRSRPPRLPRPRPRPMHLPRP
shrunken log2 fold change: -0.118

RRIRVRPPRLPRPRPRPKIKPRP
shrunken log2 fold change: -0.303

RRIRPRPPRLPRPRPRPKKDPRP
shrunken log2 fold change: -0.151

RRIRKRPPRLPRPRPRPGKDPRP
shrunken log2 fold change: 0.173

RRIRDRPPRLPRPRPRPFLPPRP
shrunken log2 fold change: -0.358

RRIRGRPPRLPRPRPRPPSIPRP
shrunken log2 fold change: 0.519

RRIRARPPRLPRPRPRPQTYPRP
shrunken log2 fold change: 0.00151

RRIRKRPPRLPRPRPRPAECPRP
shrunken log2 fold change: 0.33

RRIRCRPPRLPRPRPRPCCAPRP
shrunken log2 fold change: 0.242

RRIRMRPPRLPRPRPRPLGMPRP
shrunken log2 fold change: -0.112

RRIRVRPPRLPRPRPRPMNPPRP
shrunken log2 fold change: -0.421

RRIRNRPPRLPRPRPRPSTQPRP
shrunken log2 fold change: -0.502

RRIRHRPPRLPRPRPRPTMNPRP
shrunken log2 fold change: -0.173

RRIRSRPPRLPRPRPRPATRPRP
shrunken log2 fold change: 0.415

RRIRFRPPRLPRPRPRPNSTPRP
shrunken log2 fold change: -0.671

RRIRIRPPRLPRPRPRPAQEPRP
shrunken log2 fold change: -0.0756

RRIRTRPPRLPRPRPRPPPFPRP
shrunken log2 fold change: 0.452

RRIRERPPRLPRPRPRPNYNPRP
shrunken log2 fold change: -1.1

RRIRERPPRLPRPRPRPPLKPRP
shrunken log2 fold change: 0.322

RRIRVRPPRLPRPRPRPEFWPRP
shrunken log2 fold change: 0.439

RRIRSRPPRLPRPRPRPRNLPRP
shrunken log2 fold change: -0.322

RRIRKRPPRLPRPRPRPCFPPRP
shrunken log2 fold change: 0.123

RRIRSRPPRLPRPRPRPWNHPRP
shrunken log2 fold change: -0.0307

RRIRCRPPRLPRPRPRPTGIPRP
shrunken log2 fold change: 0.287

RRIRSRPPRLPRPRPRPCPIPRP
shrunken log2 fold change: -0.267

RRIRIRPPRLPRPRPRPIQAPRP
shrunken log2 fold change: -0.209

RRIRARPPRLPRPRPRPEKWPRP
shrunken log2 fold change: 0.244

RRIRDRPPRLPRPRPRPGMFPRP
shrunken log2 fold change: 0.00675

RRIRDRPPRLPRPRPRPLILPRP
shrunken log2 fold change: -0.096

RRIRARPPRLPRPRPRPIKPPRP
shrunken log2 fold change: 0.0335

RRIRARPPRLPRPRPRPHYSPRP
shrunken log2 fold change: 0.141

RRIRERPPRLPRPRPRPATCPRP
shrunken log2 fold change: -0.292

RRIRGRPPRLPRPRPRPKAAPRP
shrunken log2 fold change: 1.26

RRIRMRPPRLPRPRPRPQETPRP
shrunken log2 fold change: -0.00161

RRIRYRPPRLPRPRPRPQWIPRP
shrunken log2 fold change: 0.00701

RRIRRRPPRLPRPRPRPPFGPRP
shrunken log2 fold change: 0.453

RRIRLRPPRLPRPRPRPWVTPRP
shrunken log2 fold change: -0.145

RRIRCRPPRLPRPRPRPTAHPRP
shrunken log2 fold change: 0.181

RRIRWRPPRLPRPRPRPIKRPRP
shrunken log2 fold change: 0.21

RRIRNRPPRLPRPRPRPNRSPRP
shrunken log2 fold change: -0.165

RRIRLRPPRLPRPRPRPDIQPRP
shrunken log2 fold change: 0.0103

RRIRYRPPRLPRPRPRPFVDPRP
shrunken log2 fold change: -0.0498

RRIRWRPPRLPRPRPRPKRDPRP
shrunken log2 fold change: 0.696

RRIRVRPPRLPRPRPRPQEKPRP
shrunken log2 fold change: 0.0369

RRIRYRPPRLPRPRPRPYLHPRP
shrunken log2 fold change: -0.0309

RRIRDRPPRLPRPRPRPCARPRP
shrunken log2 fold change: 0.219

RRIRERPPRLPRPRPRPTMLPRP
shrunken log2 fold change: 0.00422

RRIRNRPPRLPRPRPRPFLDPRP
shrunken log2 fold change: -0.358

RRIRVRPPRLPRPRPRPQGTPRP
shrunken log2 fold change: -0.289

RRIRWRPPRLPRPRPRPFIGPRP
shrunken log2 fold change: -0.38

RRIRWRPPRLPRPRPRPGEKPRP
shrunken log2 fold change: 0.489

RRIRWRPPRLPRPRPRPYMCPRP
shrunken log2 fold change: 0.00232

RRIRCRPPRLPRPRPRPPIGPRP
shrunken log2 fold change: -0.079

RRIRIRPPRLPRPRPRPSITPRP
shrunken log2 fold change: 0.141

RRIRMRPPRLPRPRPRPHEDPRP
shrunken log2 fold change: 0.465

RRIRKRPPRLPRPRPRPIHPPRP
shrunken log2 fold change: 0.0728

RRIRIRPPRLPRPRPRPSLIPRP
shrunken log2 fold change: -0.604

RRIRIRPPRLPRPRPRPKVDPRP
shrunken log2 fold change: -0.468

RRIRMRPPRLPRPRPRPCGRPRP
shrunken log2 fold change: 1.09

RRIRVRPPRLPRPRPRPVVDPRP
shrunken log2 fold change: -0.0784

RRIRDRPPRLPRPRPRPQTAPRP
shrunken log2 fold change: 4.26

RRIRIRPPRLPRPRPRPVQPPRP
shrunken log2 fold change: 0.204

RRIRRRPPRLPRPRPRPTWRPRP
shrunken log2 fold change: 0.667

RRIRHRPPRLPRPRPRPTWVPRP
shrunken log2 fold change: 0.078

RRIRTRPPRLPRPRPRPGRFPRP
shrunken log2 fold change: -0.0311

RRIRTRPPRLPRPRPRPRCMPRP
shrunken log2 fold change: -0.288

RRIRNRPPRLPRPRPRPGGNPRP
shrunken log2 fold change: -0.0331

RRIRMRPPRLPRPRPRPLQLPRP
shrunken log2 fold change: 0.102

RRIRERPPRLPRPRPRPAFEPRP
shrunken log2 fold change: -0.0208

RRIRPRPPRLPRPRPRPIPIPRP
shrunken log2 fold change: -0.065

RRIRFRPPRLPRPRPRPVCPPRP
shrunken log2 fold change: 0.311

RRIRSRPPRLPRPRPRPKEIPRP
shrunken log2 fold change: -0.0586

RRIRYRPPRLPRPRPRPIGDPRP
shrunken log2 fold change: -0.00783

RRIRDRPPRLPRPRPRPCKWPRP
shrunken log2 fold change: -0.203

RRIRQRPPRLPRPRPRPWLNPRP
shrunken log2 fold change: -0.0662

RRIRGRPPRLPRPRPRPADTPRP
shrunken log2 fold change: 0.0689

RRIRFRPPRLPRPRPRPFHIPRP
shrunken log2 fold change: -0.663

RRIRHRPPRLPRPRPRPWCWPRP
shrunken log2 fold change: 0.0593

RRIRLRPPRLPRPRPRPKVRPRP
shrunken log2 fold change: 0.316

RRIRNRPPRLPRPRPRPWYRPRP
shrunken log2 fold change: -0.117

RRIRGRPPRLPRPRPRPRFMPRP
shrunken log2 fold change: 0.172

RRIRLRPPRLPRPRPRPFHCPRP
shrunken log2 fold change: -0.0953

RRIRTRPPRLPRPRPRPASTPRP
shrunken log2 fold change: -0.0927

RRIRYRPPRLPRPRPRPICMPRP
shrunken log2 fold change: -0.018

RRIRYRPPRLPRPRPRPKCAPRP
shrunken log2 fold change: 0.0118

RRIRHRPPRLPRPRPRPITMPRP
shrunken log2 fold change: -0.18

RRIRARPPRLPRPRPRPLYLPRP
shrunken log2 fold change: -0.367

RRIRDRPPRLPRPRPRPWDTPRP
shrunken log2 fold change: -0.029

RRIRERPPRLPRPRPRPPVWPRP
shrunken log2 fold change: 0.634

RRIRPRPPRLPRPRPRPSVIPRP
shrunken log2 fold change: -0.00563

RRIRPRPPRLPRPRPRPVCRPRP
shrunken log2 fold change: -0.0794

RRIRWRPPRLPRPRPRPSHKPRP
shrunken log2 fold change: -0.193

RRIRARPPRLPRPRPRPVIVPRP
shrunken log2 fold change: 0.142

RRIRFRPPRLPRPRPRPYPKPRP
shrunken log2 fold change: -0.323

RRIRFRPPRLPRPRPRPEYKPRP
shrunken log2 fold change: -0.0678

RRIRMRPPRLPRPRPRPTPGPRP
shrunken log2 fold change: 1.13

RRIRQRPPRLPRPRPRPHHTPRP
shrunken log2 fold change: -0.0489

RRIRDRPPRLPRPRPRPGLGPRP
shrunken log2 fold change: 0.208

RRIRQRPPRLPRPRPRPCCYPRP
shrunken log2 fold change: -0.0451

RRIRTRPPRLPRPRPRPIEQPRP
shrunken log2 fold change: -0.00141

RRIRTRPPRLPRPRPRPYHRPRP
shrunken log2 fold change: 0.0446

RRIRNRPPRLPRPRPRPVWAPRP
shrunken log2 fold change: 0.599

RRIRMRPPRLPRPRPRPISSPRP
shrunken log2 fold change: -0.0416

RRIRIRPPRLPRPRPRPCPYPRP
shrunken log2 fold change: -0.269

RRIRQRPPRLPRPRPRPMNNPRP
shrunken log2 fold change: -0.2

RRIRDRPPRLPRPRPRPRELPRP
shrunken log2 fold change: 0.0713

RRIRLRPPRLPRPRPRPPMTPRP
shrunken log2 fold change: 0.907

RRIRDRPPRLPRPRPRPLTPPRP
shrunken log2 fold change: 0.128

RRIRVRPPRLPRPRPRPCNQPRP
shrunken log2 fold change: 0.0169

RRIRMRPPRLPRPRPRPCCLPRP
shrunken log2 fold change: 0.273

RRIRNRPPRLPRPRPRPERQPRP
shrunken log2 fold change: 0.221

RRIRHRPPRLPRPRPRPKFWPRP
shrunken log2 fold change: 0.00227

RRIRNRPPRLPRPRPRPKESPRP
shrunken log2 fold change: 0.149

RRIRMRPPRLPRPRPRPAFDPRP
shrunken log2 fold change: 0.629

RRIRTRPPRLPRPRPRPNRTPRP
shrunken log2 fold change: -0.002

RRIRNRPPRLPRPRPRPGIAPRP
shrunken log2 fold change: 0.0989

RRIRRRPPRLPRPRPRPLSVPRP
shrunken log2 fold change: 0.298

RRIRNRPPRLPRPRPRPFVAPRP
shrunken log2 fold change: -0.41

RRIRNRPPRLPRPRPRPFIHPRP
shrunken log2 fold change: -0.116
